Results from patent publication US20210047399A1 (PHANES THERAPEUTICS, published 2021).

T1: recombinant FLAG-huDLL3 (human DLL3 extracellular domain with FLAG tag at the N-terminus) (human, UniProt Q9NYJ7 27-492)
T1 construct: Bought (Adipogen, Cat AG40B-0151); the whole entry is named here; also called recombinant DLL3 protein; recombinant human FLAG-huDLL3; not shown: N-terminal FLAG tag
T1 sequence: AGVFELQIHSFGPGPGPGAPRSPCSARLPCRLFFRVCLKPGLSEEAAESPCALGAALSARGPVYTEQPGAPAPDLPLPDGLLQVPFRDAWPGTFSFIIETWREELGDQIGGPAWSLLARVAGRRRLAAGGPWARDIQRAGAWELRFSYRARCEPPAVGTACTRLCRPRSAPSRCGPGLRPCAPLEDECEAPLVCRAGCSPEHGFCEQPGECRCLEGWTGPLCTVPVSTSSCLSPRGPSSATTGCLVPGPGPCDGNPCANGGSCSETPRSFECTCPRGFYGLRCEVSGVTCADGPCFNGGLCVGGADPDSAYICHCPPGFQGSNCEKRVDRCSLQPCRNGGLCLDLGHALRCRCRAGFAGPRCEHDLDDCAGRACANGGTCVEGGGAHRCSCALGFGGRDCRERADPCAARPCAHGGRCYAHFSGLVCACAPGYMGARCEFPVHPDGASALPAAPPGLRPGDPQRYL


Legend:
[1] = target: T1, recombinant FLAG-huDLL3 (human DLL3 …); experiment: ELISA, FLAG-huDLL3 coated on plate
[2] = target: T2, human CD47 extracellular domain (CD47(ECD)) (human, UniProt Q08722 19-139); experiment: ELISA, human CD47(ECD) coated on plate
T2 construct: extracellular domain; Bought protein; also called human CD47(ECD); immobilized CD47
Description: The purified mAbs were analyzed for their ability to bind to the extracellular domain of CD47 (CD47(ECD)) in an ELISA assay as follows: human CD47(ECD) (AcroBio, Cat #: CD7-HA2E9-50 μg) in carbonate coating buffer (50 μL/well at 1 μg/mL) was coated on a 96-well ELISA plate for 1 hour at room temperature. After washing, the plate was blocked in 5% BSA in TBST for 1 hour at room temperature and washed again. In each well of the plate, an antibody at 50 μL/well at various concentrations was added and incubated for 1 hour at room temperature. The plate was washed and the binding of the antibody to the immobilized CD47 was detected by incubating with anti-human IgG conjugated to horseradish peroxidase (hIgG-HRP) (ThermoFisher Scientific, Cat #: H10007) for 60 minutes at room temperature. Then after washing, the ELISA was developed using One-step Detection Solution (ThermoFisher Scientific, Cat #: 34028) and measured as the absorbance at 450 nm.

[3] = target: T2, human CD47 extracellular domain …; experiment: ELISA, CD47(ECD) coated on regular plate (FIG. 5)

T2 sequence (Q08722 19-139 limits assumed): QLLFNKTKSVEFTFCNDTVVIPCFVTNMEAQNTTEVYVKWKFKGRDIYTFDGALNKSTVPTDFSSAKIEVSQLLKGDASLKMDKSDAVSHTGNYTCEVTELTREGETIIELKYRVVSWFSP

Binder	EC50 [2]	also measured
humanized anti-DLL3 mAb H1L1 (antibody, V domains shown, Humanized 13P9A) VH: EVRLSQSGGQMKKPGESMRLSCRASGYTFTSYVMHWVRQAPGRRPEWIGYINPYNDATKYARKFQGRATLTSDKYSDTAFLELRSLTSDDTAVYYCARGGYDYDGDYWGRGAPVTVSS VL: EIVMTQSPGTLSLSPGERATLSCHASQNINVWLSWYQQKPGQAPRLLIYKASNLHTGIPDRFSGSGSGTDFTLTISRLEPEDFAVYYCQQGQSYPFTFGQGTKVEIK	–	EC50 [1]: 0.13 nM
humanized anti-DLL3 mAb H1L2 (antibody, V domains shown, also called anti-DLL3 parental mAb) VH: EVRLSQSGGQMKKPGESMRLSCRASGYTFTSYVMHWVRQAPGRRPEWIGYINPYNDATKYARKFQGRATLTSDKYSDTAFLELRSLTSDDTAVYYCARGGYDYDGDYWGRGAPVTVSS VL: EIVLTQSPGTLSLSPGERATLSCHASQNINVWLSWYQQKPGQAPRLLIYKASNLHTGIPDRFSGSGSGTDFTLTISRLEPEDFAVYYCQQGQSYPFTFGQGTKVEIK	–	EC50 [1]: 0.12 nM
humanized anti-DLL3 mAb H1L3 (antibody, V domains shown) VH: EVRLSQSGGQMKKPGESMRLSCRASGYTFTSYVMHWVRQAPGRRPEWIGYINPYNDATKYARKFQGRATLTSDKYSDTAFLELRSLTSDDTAVYYCARGGYDYDGDYWGRGAPVTVSS VL: EIVMTQSPATLSLSPGETAIISCHASQNINVWLSWYQQRPGQAPRLLIYKASNLHTGIPDRFSGSGWGTDFNLSISNLESGDFGVYYCQQGQSYPFTFGQGTKVEIK	–	EC50 [1]: 0.15 nM
humanized anti-CD47 mAb KH3L1 (antibody, V domains shown) VH: EVRLSQSGGQMKKPGESMRLSCRASGYTFTSYWMHWVRQAPGRRLEWIGNIDPSDSETHYARKFQGRATLTVDKYSDTAFLELRSLTSDDTAVYYCAGTDLAYWGRGAPVTVSS VL: EIVMTQSPGTLSLSPGERATLSCHASQNINVWLSWYQQKPGQAPRLLIYKASNLHTGIPDRFSGSGSGTDFTLTISRLEPEDFAVYYCQQGQSYPFTFGQGTKVEIK	0.09 nM	–
humanized anti-CD47 mAb KH3L2 (antibody, V domains shown) VH: EVRLSQSGGQMKKPGESMRLSCRASGYTFTSYWMHWVRQAPGRRLEWIGNIDPSDSETHYARKFQGRATLTVDKYSDTAFLELRSLTSDDTAVYYCAGTDLAYWGRGAPVTVSS VL: EIVLTQSPGTLSLSPGERATLSCHASQNINVWLSWYQQKPGQAPRLLIYKASNLHTGIPDRFSGSGSGTDFTLTISRLEPEDFAVYYCQQGQSYPFTFGQGTKVEIK	0.08 nM	–
humanized anti-CD47 mAb KH3L3 (antibody, V domains shown) VH: EVRLSQSGGQMKKPGESMRLSCRASGYTFTSYWMHWVRQAPGRRLEWIGNIDPSDSETHYARKFQGRATLTVDKYSDTAFLELRSLTSDDTAVYYCAGTDLAYWGRGAPVTVSS VL: EIVMTQSPATLSLSPGETAIISCHASQNINVWLSWYQQRPGQAPRLLIYKASNLHTGIPDRFSGSGWGTDFNLSISNLESGDFGVYYCQQGQSYPFTFGQGTKVEIK	0.18 nM	–
humanized anti-CD47 mAb KH3L4 (antibody, V domains shown) VH: EVRLSQSGGQMKKPGESMRLSCRASGYTFTSYWMHWVRQAPGRRLEWIGNIDPSDSETHYARKFQGRATLTVDKYSDTAFLELRSLTSDDTAVYYCAGTDLAYWGRGAPVTVSS VL: EIVMTQSPATLSLSPGETAIISCHASQNINVWLSWYQQRPGQAPRLLIYKASNLHTGIPDRFSGSGWGTDFNLSISNLESGDFGVYYCQQGQSYPWTFGQGTKVEIK	0.08 nM	–
anti-CD47/DLL3 bispecific antibody BA1 (KH2/H1/L2) (bispecific antibody, Common light chain L2; anti-CD47 arm KH2 (knob), anti-DLL3 arm H1 (hole); not shown: IgG1 heavy chain constant region, knob; IgG1 heavy chain constant region, hole; kappa light chain constant region) heavy 1: QVQLVQSGAEVKKPGASVKVSCKASGYTFTSYWMHWVRQAPGQGLEWIGNIDPSDSETHYAQKFQGRVTLTVDKSTSTVYMELSSLRSEDTAVYYCAGTDLAYWGQGTLVTVSS heavy 2: EVRLSQSGGQMKKPGESMRLSCRASGYTFTSYVMHWVRQAPGRRPEWIGYINPYNDATKYARKFQGRATLTSDKYSDTAFLELRSLTSDDTAVYYCARGGYDYDGDYWGRGAPVTVSS light: EIVLTQSPGTLSLSPGERATLSCHASQNINVWLSWYQQKPGQAPRLLIYKASNLHTGIPDRFSGSGSGTDFTLTISRLEPEDFAVYYCQQGQSYPFTFGQGTKVEIK	–	binding result [3]: binds
anti-CD47/DLL3 bispecific antibody BA1(C) (bispecific antibody, BA1 further modified by S354C on the anti-CD47 HC (KH2) and Y349C on the anti-DLL3 HC (H1); not shown: IgG1 heavy chain constant region, knob with added cysteine; IgG1 heavy chain constant region, hole with added cysteine; kappa light chain constant region) heavy 1: QVQLVQSGAEVKKPGASVKVSCKASGYTFTSYWMHWVRQAPGQGLEWIGNIDPSDSETHYAQKFQGRVTLTVDKSTSTVYMELSSLRSEDTAVYYCAGTDLAYWGQGTLVTVSS heavy 2: EVRLSQSGGQMKKPGESMRLSCRASGYTFTSYVMHWVRQAPGRRPEWIGYINPYNDATKYARKFQGRATLTSDKYSDTAFLELRSLTSDDTAVYYCARGGYDYDGDYWGRGAPVTVSS light: EIVLTQSPGTLSLSPGERATLSCHASQNINVWLSWYQQKPGQAPRLLIYKASNLHTGIPDRFSGSGSGTDFTLTISRLEPEDFAVYYCQQGQSYPFTFGQGTKVEIK	–	binding result [3]: binds
anti-CD47/DLL3 bispecific antibody BA4(C) (bispecific antibody, Variable regions of BA1 on the IgG4 framework with the same cysteine mutations as BA1(C); not shown: IgG4 heavy chain constant region ("IgG4 frame work") with the same cysteine mutation as BA1(C); knob mutation not explic; hole mutations not expli; kappa light chain constant region) heavy 1: QVQLVQSGAEVKKPGASVKVSCKASGYTFTSYWMHWVRQAPGQGLEWIGNIDPSDSETHYAQKFQGRVTLTVDKSTSTVYMELSSLRSEDTAVYYCAGTDLAYWGQGTLVTVSS heavy 2: EVRLSQSGGQMKKPGESMRLSCRASGYTFTSYVMHWVRQAPGRRPEWIGYINPYNDATKYARKFQGRATLTSDKYSDTAFLELRSLTSDDTAVYYCARGGYDYDGDYWGRGAPVTVSS light: EIVLTQSPGTLSLSPGERATLSCHASQNINVWLSWYQQKPGQAPRLLIYKASNLHTGIPDRFSGSGSGTDFTLTISRLEPEDFAVYYCQQGQSYPFTFGQGTKVEIK	–	binding result [3]: binds
humanized anti-CD47 mAb KH1L1 (antibody, V domains shown, Humanized VH of anti-CD47 mAb 17C6A with humanized VL of anti-DLL3 13P9A) VH: QVQLVQSGAEVKKPGSSVKVSCKASGYTFTSYWMHWVRQAPGQGLEWIGNIDPSDSETHYAQKFQGRATLTVDKSTSTAYMELSSLRSEDTAVYYCAGTDLAYWGQGTLVTVSS VL: EIVMTQSPGTLSLSPGERATLSCHASQNINVWLSWYQQKPGQAPRLLIYKASNLHTGIPDRFSGSGSGTDFTLTISRLEPEDFAVYYCQQGQSYPFTFGQGTKVEIK	1.17 nM	–
humanized anti-CD47 mAb KH1L2 (antibody, V domains shown) VH: QVQLVQSGAEVKKPGSSVKVSCKASGYTFTSYWMHWVRQAPGQGLEWIGNIDPSDSETHYAQKFQGRATLTVDKSTSTAYMELSSLRSEDTAVYYCAGTDLAYWGQGTLVTVSS VL: EIVLTQSPGTLSLSPGERATLSCHASQNINVWLSWYQQKPGQAPRLLIYKASNLHTGIPDRFSGSGSGTDFTLTISRLEPEDFAVYYCQQGQSYPFTFGQGTKVEIK	0.64 nM	–
humanized anti-CD47 mAb KH1L3 (antibody, V domains shown) VH: QVQLVQSGAEVKKPGSSVKVSCKASGYTFTSYWMHWVRQAPGQGLEWIGNIDPSDSETHYAQKFQGRATLTVDKSTSTAYMELSSLRSEDTAVYYCAGTDLAYWGQGTLVTVSS VL: EIVMTQSPATLSLSPGETAIISCHASQNINVWLSWYQQRPGQAPRLLIYKASNLHTGIPDRFSGSGWGTDFNLSISNLESGDFGVYYCQQGQSYPFTFGQGTKVEIK	0.76 nM	–
humanized anti-CD47 mAb KH2L1 (antibody, V domains shown) VH: QVQLVQSGAEVKKPGASVKVSCKASGYTFTSYWMHWVRQAPGQGLEWIGNIDPSDSETHYAQKFQGRVTLTVDKSTSTVYMELSSLRSEDTAVYYCAGTDLAYWGQGTLVTVSS VL: EIVMTQSPGTLSLSPGERATLSCHASQNINVWLSWYQQKPGQAPRLLIYKASNLHTGIPDRFSGSGSGTDFTLTISRLEPEDFAVYYCQQGQSYPFTFGQGTKVEIK	0.19 nM	–
humanized anti-CD47 mAb KH2L2 (antibody, V domains shown, also called anti-CD47 parental mAb) VH: QVQLVQSGAEVKKPGASVKVSCKASGYTFTSYWMHWVRQAPGQGLEWIGNIDPSDSETHYAQKFQGRVTLTVDKSTSTVYMELSSLRSEDTAVYYCAGTDLAYWGQGTLVTVSS VL: EIVLTQSPGTLSLSPGERATLSCHASQNINVWLSWYQQKPGQAPRLLIYKASNLHTGIPDRFSGSGSGTDFTLTISRLEPEDFAVYYCQQGQSYPFTFGQGTKVEIK	0.18 nM	–
humanized anti-CD47 mAb KH2L3 (antibody, V domains shown) VH: QVQLVQSGAEVKKPGASVKVSCKASGYTFTSYWMHWVRQAPGQGLEWIGNIDPSDSETHYAQKFQGRVTLTVDKSTSTVYMELSSLRSEDTAVYYCAGTDLAYWGQGTLVTVSS VL: EIVMTQSPATLSLSPGETAIISCHASQNINVWLSWYQQRPGQAPRLLIYKASNLHTGIPDRFSGSGWGTDFNLSISNLESGDFGVYYCQQGQSYPFTFGQGTKVEIK	0.09 nM	–
